Where two headings read alike, the source gives them in different places.
Key:
[1] = biological target: T1, SARS-CoV-2 C.37 Spike His Protein (R&D, Cat. #10887-CV) (SARS-CoV-2, UniProt P0DTC2 16-1211); assay: direct ELISA on coated spike
[2] = biological target: Recombinant SARS-CoV-2 BA.2 Spike (GCN4-IZ) His Protein, CF (R&D, 11109-CV) (SARS-CoV-2, UniProt P0DTC2 16-1211); assay: BLI (ForteBio), mAb on AHC sensor, spike in solution
[3] = biological target: T2, SARS-CoV-2 B.1.1.529 Spike Protein (Omicron) (SARS-CoV-2, UniProt P0DTC2 16-1211); assay: as above
[4] = biological target: SARS-CoV-2 Spike Trimer, His Tag (BA.4/Omicron) (MALS verified) (AcroBiosystems, SPN-C5229) (SARS-CoV-2, UniProt P0DTC2 16-1213); assay: as above
[5] = biological target: T3, SARS-CoV-2 AY.1 Spike Protein (R&D, Cat. #10922-CV) (SARS-CoV-2, UniProt P0DTC2 16-1211); assay: as above
[6] = biological target: T4, SARS-CoV-2 B.1.617.2 Spike Protein (R&D, Cat. #10878-CV) (SARS-CoV-2, UniProt P0DTC2 16-1211); assay: as above
[7] = biological target: T5, SARS-CoV-2 Spike Protein, wild type (R&D, Cat. #10549-CV) (SARS-CoV-2, UniProt P0DTC2 16-1211); assay: as above
[8] = biological target: SARS-CoV-2 Spike Trimer, His Tag (BA.5/Omicron) (MALS verified) (AcroBiosystems, SPN-C522e) (SARS-CoV-2, UniProt P0DTC2 16-1213); assay: as above
[9] = biological target: T1, SARS-CoV-2 C.37 Spike His Protein (R&D, …); assay: as above
[10] = biological target: T1, SARS-CoV-2 C.37 Spike His Protein (R&D, …)
[11] = biological target: T4, SARS-CoV-2 B.1.617.2 Spike Protein …; assay: direct ELISA on coated spike
[12] = biological target: T5, SARS-CoV-2 Spike Protein, wild type …
[13] = biological target: T3, SARS-CoV-2 AY.1 Spike Protein (R&D, …); assay: direct ELISA on coated spike
[14] = biological target: T2, SARS-CoV-2 B.1.1.529 Spike Protein …; assay: competition ELISA: blocks biotin-ACE2 binding to coated spike
[15] = biological target: T5, SARS-CoV-2 Spike Protein, wild type …; assay: direct ELISA on coated spike
[16] = biological target: T4, SARS-CoV-2 B.1.617.2 Spike Protein …; assay: competition ELISA: blocks biotin-ACE2 binding to coated spike
[17] = biological target: T2, SARS-CoV-2 B.1.1.529 Spike Protein …; assay: direct ELISA on coated spike
[18] = biological target: T3, SARS-CoV-2 AY.1 Spike Protein (R&D, …); assay: competition ELISA: blocks biotin-ACE2 binding to coated spike
[19] = biological target: T6, SARS-CoV-2 C.37 Spike His Protein (R&D, Cat. #10887-CV) (SARS-CoV-2, UniProt P0DTC2 16-1211); assay: direct ELISA on coated spike; remark: listed apart in the source
[20] = biological target: T7, SARS-CoV-2 AY.1 Spike Protein (R&D, Cat. #10922-CV) (SARS-CoV-2, UniProt P0DTC2 16-1211); assay: competition ELISA: blocks biotin-ACE2 binding to coated spike; remark: listed apart in the source
[21] = biological target: T6, SARS-CoV-2 C.37 Spike His Protein (R&D, …); assay: BLI (ForteBio), mAb on AHC sensor, spike in solution; remark: listed apart in the source
[22] = biological target: T7, SARS-CoV-2 AY.1 Spike Protein (R&D, …); assay: as above; remark: listed apart in the source
[23] = biological target: T8, SARS-CoV-2 Spike Protein, wild type (R&D, Cat. #10549-CV) (SARS-CoV-2, UniProt P0DTC2 16-1211); assay: as above; remark: listed apart in the source
[24] = biological target: T8, SARS-CoV-2 Spike Protein, wild type …; assay: competition ELISA: blocks biotin-ACE2 binding to coated spike
[25] = biological target: T7, SARS-CoV-2 AY.1 Spike Protein (R&D, …); assay: direct ELISA on coated spike; remark: listed apart in the source
[26] = biological target: T6, SARS-CoV-2 C.37 Spike His Protein (R&D, …); assay: competition ELISA: blocks biotin-ACE2 binding to coated spike
[27] = biological target: T8, SARS-CoV-2 Spike Protein, wild type …; assay: direct ELISA on coated spike; remark: listed apart in the source
[28] = biological target: T6, SARS-CoV-2 C.37 Spike His Protein (R&D, …); assay: competition ELISA: blocks biotin-ACE2 binding to coated spike; remark: listed apart in the source
[29] = biological target: T8, SARS-CoV-2 Spike Protein, wild type …; assay: as above; remark: listed apart in the source
[30] = biological target: T7, SARS-CoV-2 AY.1 Spike Protein (R&D, …); assay: as above; remark: listed apart in the source
[31] = biological target: T2, SARS-CoV-2 B.1.1.529 Spike Protein …; assay: direct ELISA on coated spike, single dose (axis label 30nm)

B1: anti-SARS-CoV-2 antibody clone R4-1a-10 (antibody, V domains shown)
VH: QVQLQQWGAGLLKPSETLSLTCAVYGGSFSGNYWSWIRQPPGKGLEWIGEINHSGSTNYNPSLKSRVTISVDTSKNQFSLKLSSVTAADTAVYYCARGLLDYWGQGTLVTVSS
VL: QSVLTQPSSVSAAPWQRVTISCSGSDSNIGNNPVNWYQHVPGKAPTLLIYYDNFLASKISDRFSGSKSGTSASLAISGLQSDDEADYYCASWDDSLNGVVFGGGTKLTVLR
B1 was tested. Which EC50 [1] did it give?
The EC50 was 1.99 nM.

What about the Kd [2] of the same binder?
The Kd was 3.23 nM.

And the Kd [3]?
The Kd was 0.571 nM.

And the Kd [4]?
The Kd was 6.86 nM.

What about the Kd [5] of the same binder?
The Kd was 1.79 nM.

What about the Kd [6] of the same binder?
Its Kd is 2.34 nM.

What about the Kd [7] of the same binder?
The Kd was 1.87 nM.

And the Kd [8]?
The Kd was 7.86 nM.

What about the Kd [9] of the same binder?
Its Kd is 1.01 nM.

And the IC50 [10]?
Its IC50 is 73.8 nM.

And the EC50 [11]?
Its EC50 is 0.0369 nM.

What about the IC50 [12] of the same binder?
The IC50 was 77 nM.

What about the EC50 [13] of the same binder?
Its EC50 is 0.0407 nM.

What about the IC50 [14] of the same binder?
Its IC50 is 1.86 nM.

And the EC50 [15]?
The EC50 was 0.479 nM.

What about the IC50 [16] of the same binder?
The IC50 was 2.12 nM.

And the EC50 [17]?
The EC50 was 0.0806 nM.

And the IC50 [18]?
Its IC50 is 0.738 nM.

B2: Imdevimab (antibody, V domains shown)
VH: QVQLVESGGGVVQPGRSLRLSCAASGFTFSNYAMYWVRQAPGKGLEWVAVISYDGSNKYYADSVKGRFTISRDNSKNTLYLQMNSLRTEDTAVYYCASGSDYGDYLLVYWGQGTLVTVSS
VL: QSALTQPASVSGSPGQSITISCTGTSSDVGGYNYVSWYQQHPGKAPKLMIYDVSKRPSGVSNRFSGSKSGNTASLTISGLQSEDEADYYCNSLTSISTWVFGGGTKLTVLG
How did the EC50 [19] turn out when B2 was run?
The EC50 was 0.0734 nM.

And the IC50 [20]?
Its IC50 is 0.697 nM.

What about the Kd [21] of the same binder?
Its Kd is 0.563 nM.

What about the Kd [22] of the same binder?
Its Kd is 0.305 nM.

And the Kd [23]?
The Kd was 2.32 nM.

And the IC50 [24]?
The IC50 was 4.85 nM.

What about the EC50 [25] of the same binder?
The EC50 was 0.0642 nM.

And the IC50 [26]?
Its IC50 is 3.77 nM.

And the EC50 [27]?
Its EC50 is 0.0681 nM.

And the IC50 [28]?
The IC50 was 3.25 nM.

And the IC50 [29]?
Its IC50 is 4.82 nM.

And the IC50 [30]?
Its IC50 is 1.18 nM.

B3: anti-SARS-CoV-2 antibody clone R3-1a-1 (antibody, V domains shown)
VH: QVQLVQSGAEVKKPGSSVKVSCKASGGTFSSYAISWVRQAPGQGLEWMGGIIPILGIANYAQKFQGRVTITADKSTSTAYMELSSLRSEDTAVYYCARDGGGSSGYHDYWGQGTLVTVSS
VL: NFMLTQPHSVSESPGKTVTISCTRSSGSIASKYVQWYQQRPGNSPTTVIYEDDQRPSGVPDRFSASIDSSANTASLTISGLKPEDEADYYCQSYDDNTAVFGGGTHLTVLG
Which results are given for B3?
Kd [2]: 4.36 nM; Kd [4]: 10.3 nM; Kd [8]: 12.5 nM; binding result [31]: no binding (tested: 30 nM (printed 30nm))

Source: US20260250363A1 (AP BIOSCIENCES, published 2026)
